This sample holds only a part of the variants without activity.

In one data set the test system is biotinyl-Phe-oxazolone. Kind of data set: self-aminoacylation, catalytic enhancement (BFO) (fold over background); higher = more active; k-Seq, kA / k0A0; sequences stand for … in GGGAAUGGAUCCACAUCUACGAAUUC…UUCACUGCAGACUUGACGAAGCUG
In a few lines: (§1)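 Mutagenized RNA pools with a 21-nt variable region (0.43 μM) reacted with each biotinyl-aminoacyl-oxazolone at 2–1250 μM. Reactions ran in 50 μL HEPES/NaCl/KCl/MgCl2/CaCl2 buffer with 5% acetonitrile, pH 6.9–7.0, for 90 minutes at room temperature. Streptavidin-captured RNA was quantified by triplicate qPCR and Illumina sequencing, and per-sequence fraction reacted was fit to a pseudo-first-order model with 1000 bootstraps. Catalytic enhancement is median kA divided by the uncatalyzed rate, the low-activity peak of a bimodal Gaussian fit.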

The subject of the next data set is biotinyl-Ile-oxazolone. Put plainly: self-aminoacylation, catalytic enhancement (BIO) (fold over background); higher = more active; k-Seq, kA / k0A0; sequences stand for … in GGGAAUGGAUCCACAUCUACGAAUUC…UUCACUGCAGACUUGACGAAGCUG
The method, boiled down:
as §1

In the next data set the test system is biotinyl-Met-oxazolone. Kind of data set: self-aminoacylation, catalytic enhancement (BMO) (fold over background); higher = more active; k-Seq, kA / k0A0; sequences stand for … in GGGAAUGGAUCCACAUCUACGAAUUC…UUCACUGCAGACUUGACGAAGCUG
In a few lines: as §1

The next data set concerns biotinyl-Val-oxazolone. Put plainly: self-aminoacylation, catalytic enhancement (BVO) (fold over background); higher = more active; k-Seq, kA / k0A0; sequences stand for … in GGGAAUGGAUCCACAUCUACGAAUUC…UUCACUGCAGACUUGACGAAGCUG
In a few lines:
as §1

For another data set, the system named is biotinyl-Leu-oxazolone. Kind of data set: self-aminoacylation, catalytic enhancement (BLO) (fold over background); higher = more active; k-Seq, kA / k0A0; sequences stand for … in GGGAAUGGAUCCACAUCUACGAAUUC…UUCACUGCAGACUUGACGAAGCUG
In a few lines:
as §1

The next data set concerns biotinyl-Trp-oxazolone. Put plainly: self-aminoacylation, catalytic enhancement (BWO) (fold over background); higher = more active; k-Seq, kA / k0A0; sequences stand for … in GGGAAUGGAUCCACAUCUACGAAUUC…UUCACUGCAGACUUGACGAAGCUG
In a few lines:
as §1

For “AAUCACCUAGGUCAUGGGGUG [Fam2.2 aminoacylation ribozyme variant]”, the self-aminoacylation in the data set with biotinyl-Phe-oxazolone came to 19.4; in the data set on biotinyl-Ile-oxazolone, 3.44; in the data set on biotinyl-Met-oxazolone, 3.26; in the data set with biotinyl-Val-oxazolone, 3.71; with biotinyl-Leu-oxazolone it was 4.25; in the data set on biotinyl-Trp-oxazolone, 4.91.
Consider “AUUAUCCUGCUCAUCGAGUGA [Fam2.1 aminoacylation ribozyme variant]”, for which the self-aminoacylation worked out at 2.88 in the data set with biotinyl-Phe-oxazolone; 1.76 with biotinyl-Ile-oxazolone; 2.69 in the data set on biotinyl-Met-oxazolone; 1.8 with biotinyl-Val-oxazolone; 2.77 in the data set on biotinyl-Leu-oxazolone; 3.08 in the data set with biotinyl-Trp-oxazolone.
For “AUUCCCCUAGGUCAUCGGGUA [Fam2.2 aminoacylation ribozyme variant]”, the self-aminoacylation in the data set on biotinyl-Phe-oxazolone came to 58.9; in the data set with biotinyl-Ile-oxazolone it was 7.47; in the data set with biotinyl-Met-oxazolone, 7.28; in the data set with biotinyl-Val-oxazolone, 7.57; in the data set with biotinyl-Leu-oxazolone, 8.16; in the data set with biotinyl-Trp-oxazolone, 10.2.
With “AUUCACCUAGAUCAUCGGGUG [Fam2.2 aminoacylation ribozyme variant]”, the self-aminoacylation in the data set on biotinyl-Phe-oxazolone was determined as 14.9; in the data set with biotinyl-Ile-oxazolone, 2.1; in the data set on biotinyl-Met-oxazolone it was 2.8; in the data set on biotinyl-Val-oxazolone, 2.22; in the data set with biotinyl-Leu-oxazolone it was 3.47; in the data set with biotinyl-Trp-oxazolone it was 2.95.
Take “AUUCACCUAGGUUUUCGGGUG [Fam2.2 aminoacylation ribozyme variant]”: the self-aminoacylation was 34.3 in the data set with biotinyl-Phe-oxazolone; 3.03 in the data set on biotinyl-Ile-oxazolone; 4.67 in the data set on biotinyl-Met-oxazolone; 3.5 in the data set on biotinyl-Val-oxazolone; 5.21 in the data set with biotinyl-Leu-oxazolone; 4.06 in the data set on biotinyl-Trp-oxazolone.

The record behind these values is the supplement of paper PMC9233669.
